Data on seven molecules can be found in patent US20140356364A1 (AMPLIMMUNE, published 2014).

The target of assay [1] is T1, Human B7-H4 protein antigen (coated on ELISA plates) (human, UniProt Q7Z7D3 25-259, limits assumed).
T1 construct: also called B7-H4 antigen; human B7-H4 antigen
T1 sequence: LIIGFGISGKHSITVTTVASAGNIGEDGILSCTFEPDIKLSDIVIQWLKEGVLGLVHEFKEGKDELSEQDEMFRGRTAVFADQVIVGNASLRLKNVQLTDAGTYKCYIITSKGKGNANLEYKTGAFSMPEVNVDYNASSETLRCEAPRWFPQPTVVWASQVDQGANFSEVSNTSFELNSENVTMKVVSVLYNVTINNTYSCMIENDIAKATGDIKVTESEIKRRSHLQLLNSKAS
Put plainly: ELISA, conditioned medium on coated human B7-H4 antigen, anti-Fc-HRP/TMB. For orientation: In an ELISA, binding on a coated surface is turned into a signal by an enzyme label.

Assay [2] deals with T2, B7-DChIg construct (extracellular domain of human DC linked to the hinge and Fc region of a human IgG1) (human, UniProt Q9BQ51 20-220).
T2 construct: extracellular domain; Specificity control antigen in the plate-based assay; not shown: human IgG1 hinge and Fc region
T2 sequence (looked up): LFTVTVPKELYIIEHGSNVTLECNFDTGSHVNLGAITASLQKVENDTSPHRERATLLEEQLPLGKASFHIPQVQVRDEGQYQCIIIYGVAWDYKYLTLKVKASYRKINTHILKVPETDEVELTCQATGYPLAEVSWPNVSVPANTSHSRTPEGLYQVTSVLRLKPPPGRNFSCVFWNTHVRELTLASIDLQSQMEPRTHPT
Kind of assay: plate-based ELISA, hybridoma supernatant on coated B7-DChIg. As for the experimental part:
(§1) Serial dilutions were made from H74 (a commercially available anti-B7-H4 antibody), 2D1, 2E11 and 2H9 stock solutions and added to 96-well ELISA plates coated with B7-H4hIg or B7-DChIg. After incubation and wash, horseradish peroxidase (HRP) conjugated anti-mouse IgG antibody was added to the plates. After incubation and wash, 3,3′,5,5′-Tetramethylbenzidine (TMB) substrate was added. The colorimetric development was stopped by H₂SO₄ stop solution and read with a plate reader measuring absorbance at a 450 nm wavelength.
(§2) A plate-based binding assay using the B7-H4hIg construct was employed to capture the elicited antibody; antibodies were then characterized as being either IgG or IgM. As a specificity control, antibodies were also subjected to capture with a B7-DChIg construct (comprising the extracellular domain (ECD) of human DC linked to the hinge and Fc region of a human IgG1) (“B7-DChIg”) and the extent of IgG capable of binding was measured.

Assay [3] has as its target T3, human B7-H4Ig (B7-H4hIg) (human, UniProt Q7Z7D3 25-259).
T3 construct: also called B7-H4Ig construct; not shown: Ig (Fc) part of the 'hIg' construct
T3 sequence: T1 sequence
Kind of assay: plate-based ELISA, hybridoma supernatant on coated B7-H4hIg. As to the method: as §1, §2

In assay [4] the target is T4, human B7-H4 expressed on the surface of stably transfected HEK293 cells (human, UniProt Q7Z7D3 25-282).
T4 construct: also called 293T.B7-H4 cells; human B7-H4 arrayed on the surface of a live cell
T4 sequence: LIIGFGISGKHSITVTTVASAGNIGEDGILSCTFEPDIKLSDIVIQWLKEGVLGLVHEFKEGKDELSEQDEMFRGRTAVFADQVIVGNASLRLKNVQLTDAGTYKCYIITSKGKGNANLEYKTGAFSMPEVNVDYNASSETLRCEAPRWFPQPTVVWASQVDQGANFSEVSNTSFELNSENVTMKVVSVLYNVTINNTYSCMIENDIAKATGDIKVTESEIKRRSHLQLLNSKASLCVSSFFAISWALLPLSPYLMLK
Put plainly: flow cytometry, hybridoma supernatant on HEK293 cells expressing human B7-H4, APC anti-mouse detection. As to the method:
Antibodies 2D1, 2E11 and 2H9 were used either un-diluted (Neat), or diluted at 1:3, 1:9 and 1:27, to stain 293T.B7-H4 cells. For binding detection, APC labeled anti-mouse IgG antibody was utilized followed by FACS analysis of APC positive cells. H74 (a commercially available anti-B7-H4 antibody) at 1 μg/mL was used as positive control. Negative control was 1 μg/mL of mIgG1. 293T.B7-H4 cells incubated with APC labeled anti-mouse IgG antibody (DAM APC only), and parent 293 T cells stained with un-diluted 2D1 (Neat [293T]) further served as negative binding controls.
Neat and diluted hybridoma supernatants were then tested for the ability of their antibodies to bind to such cells or to control […] HEK293 cells. After washing, bound antibody was detected with allophycocyanin (APC)-conjugated, anti-mouse antibodies and the mean fluorescent intensity of the cells was determined (FIG. 3).
Background: Flow cytometry measures light scatter and fluorescence of single cells or particles in a stream.

Assay [5] has as its target T1, Human B7-H4 protein antigen (coated on …). Put plainly: ELISA, conditioned medium on coated human B7-H4 antigen, anti-Fc-HRP, OD650. As for the experimental part: Human B7-H4 protein antigen and control antigen were coated onto 96-well ELISA plates. The plates are then blocked with 3% BSA, and washed in PBS.
The conditioned media (4 days post transfection) were then tested for antigen binding in the 96-well ELISA. Anti-Fc-HRP was used as the detecting antibody. Plates were washed with PBS, and TMB (3,3′,5,5′-tetramethylbenzidine) was added for HRP color reaction. Once color developed, the OD₆₅₀ in each well was determined on an absorbance microplate reader.

B1: recombinant chimeric anti-B7-H4 antibody 2H9 (2H9 heavy chain / 2H9 light chain, human IgG4 S228P) (antibody, V domains shown)
VH: EVQLVESGGNLVKPGGSLKLSCAASGFTFSNSAMSWVRQTPEKRLEWVATISDGGRYTYYPDNVKGRFTISRDNAKNNLYLQMSHLKSEDTALYYCARDRPHWYFDVWGTGATVTVSS
VL: DIVLTQSPASLAVSLGQRATISCRASESIDNYGISFMHWYQQKPGQPPKLLIYRASNLESGIPARFSGSGSRTDFTLTINPVETDDVATYFCQQSDEGRTFGGGTKLEIKR
notes: tested as CHO conditioned medium; also called 2H9 HC + 2H9 LC
Consider B1, for which the OD650 in assay [1] was found to be 1.15 OD650.

B2: anti-human B7-H4 antibody 2H9 (murine hybridoma clone) (antibody, IgG1, V domains shown)
VH: B1 VH
VL: DIVLTQSPASLAVSLGQRATISCRASESIDNYGISFMHWYQQKPGQPPKLLIYRASNLESGIPARFSGSGSRTDFTLTINPVETDDVATYFCQQSDEGRTFGGGTKLEIK
notes: Mouse hybridoma antibody tested as hybridoma supernatant; IgG1-producing clone; also called Anti-Human B7-H4 Clone 2H9
Regarding B2, the binding result in assay [2] is “no binding”.

B3: anti-human B7-H4 antibody 2E11 (murine hybridoma clone) (antibody, IgG1, V domains shown)
VH: EVKLVESEGGLVQPGSSMKLSCTASGFKFTDYYMAWVRQVPEKGLEWVANINYDGSSTYYLDSLKSRFIISRDNAKNILYLQMNSLKSEDTATYYCARKGYFDYWGQGTTLTVSS
VL: DIVMSQSPSSLAVSVGEKVTVSCKSSQSLLYSTNQRTYLAWFQQKPGQSPKLLIYWASTRESGVPDRFTGSGSGTDFTLTISSVKAEDLAVYYCQQYYNYPLTFGTGTKLELK
notes: Mouse hybridoma antibody tested as hybridoma supernatant; IgG1-producing clone; also called Anti-Human B7-H4 Clone 2E11
With B3, the binding result in assay [3] was “binds”; in assay [4], “binds”; in assay [2], “no binding”.

B4: recombinant chimeric anti-B7-H4 antibody 2D1 (2D1 heavy chain / 2D1 light chain, human IgG4 S228P) (antibody, V domains shown)
VH: EVQLVESGGGLVKPGGSLKLSCAASGFTFNSHGMSWVRQTPEKRLDWVATISDGGTYTYYPVNVKGRFTISRDNAKNNLYLQMSHLKSEDTAMYYCARDGGGGAYWGQGTLVTVSA
VL: DVVMTQTPLSLPVSLGDQASISCRSSHSLVHSNGNTYLHWYLQKPGQSPNLLIYIVSNRFSGVPDRFSGSGSGTDFTLKISRVEAEDLGVYFCSQSTHVPPTFGAGTKLELKR
notes: tested as CHO conditioned medium; also called 2D1 HC + 2D1 LC
With B4, the OD650 in assay [1] is 1.12 OD650.

B5: recombinant antibody of 2H9 heavy chain and 2D1 light chain (human IgG4 S228P) (antibody, V domains shown)
VH: B1 VH
VL: B4 VL
notes: Mixed-chain combination tested as CHO conditioned medium; also called 2H9 HC + 2D1 LC
On to B5, for which the binding result in assay [5] is “no binding”. The molecule also gave an OD650 in assay [1] of 0.02 OD650.

B6: anti-human B7-H4 antibody 2D1 (murine hybridoma clone) (antibody, IgG2, V domains shown)
VH: B4 VH
VL: DVVMTQTPLSLPVSLGDQASISCRSSHSLVHSNGNTYLHWYLQKPGQSPNLLIYIVSNRFSGVPDRFSGSGSGTDFTLKISRVEAEDLGVYFCSQSTHVPPTFGAGTKLELK
notes: Mouse hybridoma antibody tested as hybridoma supernatant; also called Anti-Human B7-H4 Clone 2D1
With B6, the binding result in assay [2] was “no binding”.

B7: recombinant antibody of 2D1 heavy chain and 2H9 light chain (human IgG4 S228P) (antibody, V domains shown)
VH: B4 VH
VL: B1 VL
notes: Mixed-chain combination tested as CHO conditioned medium; also called 2D1 HC + 2H9 LC
In the case of B7, in assay [5], the binding result is recorded as “no binding”. The molecule further returned an OD650 in assay [1] of 0.06 OD650.
